From patent publication US20230330251A1, “METHODS FOR TREATING CANCERS WITH ANTIBODY DRUG CONJUGATES (ADC) THAT BIND TO 191P4D12 PROTEINS” (AGENSYS, INC., priority 2020, published 2023)

What was measured:
[1] = system: subjects with previously treated locally advanced or metastatic urothelial cancer; conditions: in vivo
From the text: The Safety Analysis Set (SAF) will be used for the safety analysis. All subjects who are randomized and received study drug will be included in the SAF. The frequency of AEs and the serious AEs will be summarized by MedDRA system organ class and preferred term. In addition, summary statistics will be provided for the following safety parameters: • Laboratory values • Vital sign measurements • ECOG PS
An AE is any untoward medical occurrence in a subject, temporally associated with the use of a medicinal product, whether or not considered related to the medicinal product. An AE can therefore be any unfavorable and unintended sign (including an abnormal laboratory finding), symptom, or disease (new or exacerbated) temporally associated with the use of a medicinal product.
AEs, including abnormal clinical laboratory values, will be graded using the NCI-CTCAE guidelines (Version 4.03).
The safety analysis set (SAF), which consists of all subjects who received any amount of study drug, will be used for safety analyses.
SAF was used to perform all safety analysis. All treated subjects were analyzed according to the treatment they received.
The number and percentage of AEs by severity were also summarized. All AEs were listed.
A study drug-related TEAE is defined as any TEAE with a causal relationship of YES by the investigator. AEs of interest as classified by customized MedDRA queries and/or standard MedDRA queries were also summarized.

[2] = system: subjects with previously treated locally advanced or metastatic urothelial cancer; experiment: EV-301 phase 3 study: overall survival (OS), enfortumab vedotin vs chemotherapy; assay type: in vivo, human
From the text: Subjects will be stratified according to the following: Eastern Cooperative Oncology Group Performance Status (ECOG PS), regions of the world and liver metastasis.
OS is the primary endpoint. OS is defined as the time from randomization to the date of death. Secondary endpoints include PFS1, ORR, DOR, DCR, safety and QOL/PRO.
Subjects in Arm A will receive EV on Days 1, 8 and 15 of each 28-day cycle. […] Within the control arm, the overall proportion of subjects receiving vinflunine will be capped at approximately 35%. Subjects will continue to receive study treatment until radiological disease progression as determined per investigator assessment or other discontinuation criteria are met or upon study termination, or study completion, whichever occurs first. No on-study crossover will be allowed. This study will consist of 3 phases: screening, treatment and follow-up.
The Full Analysis Set (FAS) will be used for the efficacy analysis on OS and PFS1. All subjects who are randomized will be included in the FAS. For time to event endpoints including OS and PFS1 log-rank test stratified by randomization stratification factors including liver metastasis, baseline ECOG PS and regions of the world at baseline will be used to compare the 2 treatment arms. The hazard ratio and corresponding 95% confidence interval from the stratified Cox proportional hazards regression model will also be presented. The median OS, PFS1 and DOR will be estimated using the Kaplan-Meier method and will be reported along with the corresponding 95% confidence interval by treatment arm.
Efficacy analysis for OS and PFS was conducted on the FAS. The interpretation of results from statistical tests was based on the FAS. Efficacy analysis for response related endpoints, e.g., ORR and DCR was conducted on RES.
OS was formally tested at both interim analysis and final analysis. At either interim or final analysis, the formal hypothesis tests on the selected secondary endpoints including PFS1, ORR and DCR, were performed hierarchically (per the order of PFS1->ORR->DCR) only when the OS analysis is rejected. The details about the significance levels at interim analysis and final analysis for each efficacy endpoints (OS, PFS1, ORR and DCR) is specified in SAP.
The primary efficacy endpoint of OS was analyzed using the log-rank test stratified by ECOG PS (0 vs 1), regions of the world (Western EU, US or the rest of world) and liver metastasis (yes or no). Randomized treatment and the strata used for randomization was used for the analysis. In addition, the stratified Cox proportional hazard model was used to estimate the hazard ratio and the corresponding 95% confidence interval. The median OS was estimated using the Kaplan-Meier method and will be reported along with the corresponding 95% confidence interval by treatment arm.
The primary analysis was performed using the FAS.
Additional analyses such as unstratified log-rank test and OS analyses adjusting the crossover effect may be conducted, if appropriate. Details are specified in the SAP.

Substance: enfortumab vedotin
- Death, % [1]: (43.9%)
- Drug-Related Serious TEAE, % [1]: (22.6%)
- Drug-Related TEAE Leading to Death, % [1]: (2.4%)
- Drug-Related TEAE Leading to Death, Exclusing Disease Progression, % [1]: (2.4%)
- Drug-Related TEAE Leading to Withdrawal of Treatment, % [1]: (13.5%)
- Drug-Related TEAE with CTCAE Grade >=3, % [1]: (51.4%)
- Drug-Related TEAE, % [1]: (93.9%)
- Serious TEAE, % [1]: (46.6%)
- TEAE Leading to Death, % [1]: (7.1%)
- TEAE Leading to Death, Exclusing Disease Progression, % [1]: (3.7%)
- TEAE Leading to Withdrawal of Treatment, % [1]: (17.2%)
- TEAE Leading to dose interruption, % [1]: (60.8) %
- TEAE Leading to dose reduction, % [1]: (34.1) %
- TEAE with CTCAE Grade >=3, % [1]: (70.9%)
- TEAE, % [1]: (98.0%)
- TEAE: Alopecia, % [1]: (47.0) %
- TEAE: Anemia, % [1]: (19.9) %
- TEAE: Constipation, % [1]: (27.7) %
- TEAE: Decreased appetite, % [1]: (40.9) %
- TEAE: Diarrhea, % [1]: (34.8) %
- TEAE: Dysgeusia, % [1]: (25.0) %
- TEAE: Fatigue, % [1]: (36.1) %
- TEAE: Nausea, % [1]: (30.1) %
- TEAE: Peripheral sensory neuropathy, % [1]: (34.5) %
- TEAE: Pruritis, % [1]: (34.5) %
- TEAE: Pyrexia, % [1]: (22.0) %
- TRAE Leading to dose interruption: Anemia, % [1]: (2.7) %
- TRAE Leading to dose interruption: Asthenia, % [1]: (2.0) %
- TRAE Leading to dose interruption: Diarrhea, % [1]: (2.0) %
- TRAE Leading to dose interruption: Drug eruption, % [1]: (2.4) %
- TRAE Leading to dose interruption: Fatigue, % [1]: (5.4) %
- TRAE Leading to dose interruption: Neuropathy peripheral, % [1]: (3.0) %
- TRAE Leading to dose interruption: Neutropenia, % [1]: (2.0) %
- TRAE Leading to dose interruption: Neutrophil count decreased, % [1]: (5.1) %
- TRAE Leading to dose interruption: Peripheral sensory neuropathy, % [1]: (15.5) %
- TRAE Leading to dose interruption: Rash maculo-papular, % [1]: (4.4) %
- TRAE Leading to dose interruption: Rash, % [1]: (3.4) %
- TRAE Leading to dose reduction: Decreased appetite, % [1]: (3.4) %
- TRAE Leading to dose reduction: Fatigue, % [1]: (2.7) %
- TRAE Leading to dose reduction: Neutropenia, % [1]: (1.7) %
- TRAE Leading to dose reduction: Neutrophil count decreased, % [1]: (2.0) %
- TRAE Leading to dose reduction: Peripheral sensory neuropathy, % [1]: (7.1) %
- TRAE Leading to dose reduction: Rash maculo-papular, % [1]: (4.4) %
- TRAE Leading to dose withdrawal: Peripheral sensory neuropathy, % [1]: (2.4) %
- HR (95% CI), OS sensitivity analysis ([2]; Adjusting in chemotherapy arm based on the rank preserving structural failure time method): 0.705 (0.516-0.853)
- Median OS ([2]; All): 12.88 mo
- OS, EV vs SC HR ([2]; All): 0.702
- Overall survival (OS) Events, % ([2]; All): (44.5) %
- Overall survival (OS) Events, n/N ([2]; All): 134/301
- Median OS ([2]; FAS, Kaplan-Meier): 12.88 Months
- Deaths, % ([2]; FAS, interim analysis): (44.5%)
- # of Deaths ([2]; Full Analysis Set, data cutoff 15 Jul. 2020): 134
- HR (95% CI), OS sensitivity analysis ([2]; Inverse probability of censoring weights method): 0.630 (0.435-0.912)
- reduction in risk of death ([2]; PADCEV vs chemotherapy): 30%
- HR (95% CI), OS sensitivity analysis ([2]; Unstratified analysis): 0.719 (0.572-0.903)
- estimated percentage of patients alive at 12 months ([2]; in vivo): 51.5%
- overall survival (OS) compared with standard chemotherapy ([2]; in vivo): superior
- primary endpoint of overall survival compared to chemotherapy ([2]; in vivo): met its primary endpoint of overall survival
- risk of death lower with enfortumab vedotin than with chemotherapy ([2]; median follow-up 11.1 months): 30%
